The text below walks through data of paper PMC9482650, “Quantitative fragmentomics allow affinity mapping of interactomes” (Nature Communications, 2022).

The labels stand for the following.
T1: MPDZ_12, O75970
T1 sequence (O75970 1857-1958, limits assumed, looked up): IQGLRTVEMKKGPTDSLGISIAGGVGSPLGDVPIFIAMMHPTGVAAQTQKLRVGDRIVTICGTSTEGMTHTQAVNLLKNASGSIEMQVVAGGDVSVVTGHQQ

T2: PCLO, Q9Y6V0
T2 sequence (Q9Y6V0 4491-4600, limits assumed, looked up): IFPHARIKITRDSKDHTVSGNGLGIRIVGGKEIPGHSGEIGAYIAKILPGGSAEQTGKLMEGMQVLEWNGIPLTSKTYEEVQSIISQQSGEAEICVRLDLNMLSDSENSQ

Chain of TJP1_3, Q07157 (Q07157 416-512): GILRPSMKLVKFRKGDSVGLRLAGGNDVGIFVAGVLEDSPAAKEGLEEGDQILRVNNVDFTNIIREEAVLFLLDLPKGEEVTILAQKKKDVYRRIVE

One test concerns the target T1, MPDZ_12, O75970. The test is described as follows: holdup assay. The conditions noted are these: plain residues with an end cap or a label only (N-terminal biotin on a linker: ado-ado). Set-up: key: below the threshold = too weak to quantify, mostly under pKd 3.1 to 4.
As usually defined, the pKd is −log10 of the Kd, conventionally taken in molar units. With QKNKDKEYYV [NRXN3_rs746444206, Q9Y4C0], the pKd result is “below the threshold”.

In turn, LHLHGTGIQV [EPHA7, Q15375] showed a pKd of 3.55.

On to SVVSERISSV [HTR2C, P28335], for which the pKd result was “below the threshold”.

As to EEPEERHTEL [CES2, O00748], the pKd result is “below the threshold”.

In the case of EDLTKNHDEL [RCN1, Q15293], the pKd entry is on record as “below the threshold”.

With FVHPILQSAV [PRKCA, P17252], the pKd result was “below the threshold”.

On to GFGEERESIL [KIDINS220, Q9ULH0], for which the negative-log Kd (pKd) result is reported as “below the threshold”.

TETASVCTKV [SLC23A1, Q9UHI7] yielded a pKd of 3.82.

For the molecule RGGFGRQTQI [NCBP2L, A6PVI3], the negative-log Kd (pKd) was 3.76.

The same test, now with this note: plain residues with an end cap or a label only (N-terminal biotin on a linker: ahx).
In the case of RNCSTNDSLL [ADRB2, P07550], the negative-log Kd (pKd) result is recorded as “below the threshold”.

Molecule HSGSYLVTSV [APC, P25054] yielded a pKd of 3.63.

Regarding KTSAHHATFV [RGS12, O14924], the pKd stood at 3.78.

With SSSNSEDTEM [NHERF3, Q5T2W1], the pKd result was “below the threshold”.

For the molecule EKLSSIESDV [GRIN2B, Q13224], the pKd result was “below the threshold”.

QGRWDHETIV [TMEM215, Q68D42]: the pKd result is given as “below the threshold”.

As for LCKSHAFSHV [PDLIM7, Q9NR12;Q9NR12-1], the pKd result is on record as “below the threshold”.

As to KKNKDKEYYV [NRXN1, Q9ULB1], the pKd result was “below the threshold”.

With EDEDEQVSAV [RAPGEF2, Q9Y4G8], the negative logarithm of the Kd (pKd) entry is given as “below the threshold”.

The test is the same for the next values; noted with them: plain residues with an end cap or a label only (N-terminal biotin on a linker: gsgsgs; C-terminal amide).
ELIQDTSTSFSTTREW [ARAP3_int, Q8WWN8]: the pKd entry is recorded as “below the threshold”.

The test is the same for the next values; noted with them: plain residues with an end cap or a label only (N-terminal biotin on a linker: ttds).
For GGPKEEESPV [SLC16A1, P53985], the negative logarithm of the Kd (pKd) entry was “below the threshold”.

In the case of TEEEVQDTRL [CFTR, P13569], the pKd result was “below the threshold”.

On to SPLHSLETSL [ATP2B1, P20020], for which the pKd entry is given as “below the threshold”.

As to CNTVTVETVV [MAS1, P04201], the pKd result is “below the threshold”.

Turning to VNKVWDQSSV [CIT, O14578], the pKd result is reported as “below the threshold”.

For DPRNTQTSQI [ABRAXAS2, Q15018], the pKd entry is recorded as “below the threshold”.

As for LCALPKVTTV [AGMAT, Q9BSE5], the pKd result is given as “below the threshold”.

Consider PKRPFVESNV [TANC2, Q9HCD6], for which the pKd result is on record as “below the threshold”.

Turning to LDSQIQETSI [MAP4, P27816], the pKd entry is “below the threshold”.

Another test concerns the target T2, PCLO, Q9Y6V0. The test is described as follows: holdup assay. Set-up: key: below the threshold = too weak to quantify, mostly under pKd 3.1 to 4. The conditions noted are these: plain residues with an end cap or a label only (N-terminal biotin on a linker: ado-ado).
Take QKNKDKEYYV [NRXN3_rs746444206, Q9Y4C0]: the pKd entry is “below the threshold”.

As for LHLHGTGIQV [EPHA7, Q15375], the pKd entry is listed as “below the threshold”.

For SVVSERISSV [HTR2C, P28335], the pKd result is given as “below the threshold”.

Consider EEPEERHTEL [CES2, O00748], for which the pKd entry was “below the threshold”.

Turning to EDLTKNHDEL [RCN1, Q15293], the pKd result is listed as “below the threshold”.

For the molecule FVHPILQSAV [PRKCA, P17252], the negative-log Kd (pKd) entry is “below the threshold”.

As to GFGEERESIL [KIDINS220, Q9ULH0], the pKd result is on record as “below the threshold”.

In the case of TETASVCTKV [SLC23A1, Q9UHI7], the pKd result is recorded as “below the threshold”.

RGGFGRQTQI [NCBP2L, A6PVI3]: the pKd result was “below the threshold”.

Staying with this test, now noted: plain residues with an end cap or a label only (N-terminal biotin on a linker: ahx).
As for RNCSTNDSLL [ADRB2, P07550], the pKd result is given as “below the threshold”.

On to HSGSYLVTSV [APC, P25054], for which the pKd entry was “below the threshold”.

With KTSAHHATFV [RGS12, O14924], the negative-log Kd (pKd) entry is reported as “below the threshold”.

Consider SSSNSEDTEM [NHERF3, Q5T2W1], for which the pKd entry is on record as “below the threshold”.

With EKLSSIESDV [GRIN2B, Q13224], the pKd result is given as “below the threshold”.

For the molecule QGRWDHETIV [TMEM215, Q68D42], the negative logarithm of the Kd (pKd) entry is reported as “below the threshold”.

On to LCKSHAFSHV [PDLIM7, Q9NR12;Q9NR12-1], for which the pKd entry is on record as “below the threshold”.

KKNKDKEYYV [NRXN1, Q9ULB1]: the pKd entry is listed as “below the threshold”.

Regarding EDEDEQVSAV [RAPGEF2, Q9Y4G8], the negative logarithm of the Kd (pKd) result was “below the threshold”.

Still in this test, the particulars now being: plain residues with an end cap or a label only (N-terminal biotin on a linker: gsgsgs; C-terminal amide).
ELIQDTSTSFSTTREW [ARAP3_int, Q8WWN8]: the pKd result is listed as “below the threshold”.

The test is the same for the next values; noted with them: plain residues with an end cap or a label only (N-terminal biotin on a linker: ttds).
As to GGPKEEESPV [SLC16A1, P53985], the pKd entry is reported as “below the threshold”.

Regarding TEEEVQDTRL [CFTR, P13569], the pKd entry is recorded as “below the threshold”.

As for SPLHSLETSL [ATP2B1, P20020], the negative logarithm of the Kd (pKd) result is reported as “below the threshold”.

As to CNTVTVETVV [MAS1, P04201], the pKd result is “below the threshold”.

Turning to VNKVWDQSSV [CIT, O14578], the pKd result is “below the threshold”.

Consider DPRNTQTSQI [ABRAXAS2, Q15018], for which the pKd came out at 3.66.

In the case of LCALPKVTTV [AGMAT, Q9BSE5], the pKd result is “below the threshold”.

Turning to PKRPFVESNV [TANC2, Q9HCD6], the negative-log Kd (pKd) entry is “below the threshold”.

As for LDSQIQETSI [MAP4, P27816], the negative logarithm of the Kd (pKd) entry is “below the threshold”.

Another test has as its target TJP1_3, Q07157. Nature of the test: holdup assay. The following applies: plain residues with an end cap or a label only (N-terminal biotin on a linker: ado-ado). Set-up: key: below the threshold = too weak to quantify, mostly under pKd 3.1 to 4.
Regarding QKNKDKEYYV [NRXN3_rs746444206, Q9Y4C0], the pKd entry is reported as “below the threshold”.

As to LHLHGTGIQV [EPHA7, Q15375], the pKd entry is on record as “below the threshold”.

As for SVVSERISSV [HTR2C, P28335], the pKd result is “below the threshold”.

For EEPEERHTEL [CES2, O00748], the pKd result was “below the threshold”.

As for EDLTKNHDEL [RCN1, Q15293], the pKd stood at 3.48.

Regarding FVHPILQSAV [PRKCA, P17252], the pKd result is “below the threshold”.

On to GFGEERESIL [KIDINS220, Q9ULH0], for which the negative-log Kd (pKd) entry is “below the threshold”.

In the case of TETASVCTKV [SLC23A1, Q9UHI7], the pKd result is on record as “below the threshold”.

RGGFGRQTQI [NCBP2L, A6PVI3]: the pKd entry is given as “below the threshold”.

Still in this test, the particulars now being: plain residues with an end cap or a label only (N-terminal biotin on a linker: ahx).
Consider RNCSTNDSLL [ADRB2, P07550], for which the pKd entry is given as “below the threshold”.

Turning to HSGSYLVTSV [APC, P25054], the pKd result is reported as “below the threshold”.

In the case of KTSAHHATFV [RGS12, O14924], the pKd entry was “below the threshold”.

Take SSSNSEDTEM [NHERF3, Q5T2W1]: the pKd entry is recorded as “below the threshold”.

For EKLSSIESDV [GRIN2B, Q13224], the pKd entry is given as “below the threshold”.

Regarding QGRWDHETIV [TMEM215, Q68D42], the negative-log Kd (pKd) entry is “below the threshold”.

As to LCKSHAFSHV [PDLIM7, Q9NR12;Q9NR12-1], the pKd result is “below the threshold”.

As to KKNKDKEYYV [NRXN1, Q9ULB1], the pKd result is “below the threshold”.

In the case of EDEDEQVSAV [RAPGEF2, Q9Y4G8], the negative logarithm of the Kd (pKd) entry is given as “below the threshold”.

Staying with this test, now noted: plain residues with an end cap or a label only (N-terminal biotin on a linker: gsgsgs; C-terminal amide).
In the case of ELIQDTSTSFSTTREW [ARAP3_int, Q8WWN8], the pKd result is “below the threshold”.

The test is the same for the next values; noted with them: plain residues with an end cap or a label only (N-terminal biotin on a linker: ttds).
For GGPKEEESPV [SLC16A1, P53985], the pKd entry is “below the threshold”.

Regarding TEEEVQDTRL [CFTR, P13569], the pKd result was “below the threshold”.

For SPLHSLETSL [ATP2B1, P20020], the pKd result is reported as “below the threshold”.

As for CNTVTVETVV [MAS1, P04201], the pKd result is recorded as “below the threshold”.

Consider VNKVWDQSSV [CIT, O14578], for which the pKd entry is “below the threshold”.

Take DPRNTQTSQI [ABRAXAS2, Q15018]: the negative-log Kd (pKd) result is on record as “below the threshold”.

Take LCALPKVTTV [AGMAT, Q9BSE5]: the pKd entry is “below the threshold”.

With PKRPFVESNV [TANC2, Q9HCD6], the negative logarithm of the Kd (pKd) entry was “below the threshold”.

LDSQIQETSI [MAP4, P27816]: the pKd entry was “below the threshold”.
